Biological target: T1, biotinylated anti-ABD goat antibody
T1 construct: also called Anti-ABD surface
Assay: SPR (Biacore 2000), periplasm diluted 15x over anti-ABD surface
Description: SPR analysis of periplasmic samples: A selection of Aβ peptide binding polypeptides was subjected to an analysis of the response against biotinylated hAβ₁₋₄₀ using a Biacore 2000 instrument (GE Healthcare). Biotinylated anti-ABD goat antibody (produced in-house) and N-terminally biotinylated hAβ₁₋₄₀ (AnaSpec cat. no. AS-24648) were immobilized in separate flow cells on a streptavidin coated chip (Biacore Sensor Chip SA, cat. no. BR100032) using HBS-EP as running buffer (0.01 M HEPES pH 7.4, 0.15 M NaCl, 3 mM EDTA, 0.005% v/v Surfactant P20, GE Healthcare, cat. no. BR100188). The ligand immobilization levels on the surfaces were approximately 2000 RU for the anti-ABD antibody and 225 RU for hAβ₁₋₄₀. One flow cell surface on the chip was used as blank during analyte injections. HBS-EP was used as running buffer and the flow rate was 25 μl/min. The analytes, i.e. periplasmic preparations of Aβ peptide binding polypeptides as described above, were each diluted 15× in HBS-EP buffer and injected for 10 min, followed by dissociation in running buffer for 5 min. After dissociation, the surfaces were regenerated with 2 pulses of 10 mM glycin pH 2.0. […]
SPR analysis of periplasmic samples: The interactions of a subset of Z variants with anti-ABD goat antibody and hAβ₁₋₄₀ were analyzed in a Biacore instrument by injecting dilutions of periplasmic samples.

B1: ABD (albumin binding domain GA3 from streptococcal Protein G), periplasm control (other)
chain: LAEAKVLANRELDKYGVSDYYKNLINNAKTVEGVKALIDEILAALP
notes: periplasm containing ABD only; also called negative control
With B1 the “Response RU” value was 19.8 RU.
